Data: patent US20190382477A1 (COMPUGEN, published 2019)

T1: PVRIG on human CMV pp65-specific CD8+ T cells (human, UniProt Q6DKI7 41-326)
T1 sequence (looked up): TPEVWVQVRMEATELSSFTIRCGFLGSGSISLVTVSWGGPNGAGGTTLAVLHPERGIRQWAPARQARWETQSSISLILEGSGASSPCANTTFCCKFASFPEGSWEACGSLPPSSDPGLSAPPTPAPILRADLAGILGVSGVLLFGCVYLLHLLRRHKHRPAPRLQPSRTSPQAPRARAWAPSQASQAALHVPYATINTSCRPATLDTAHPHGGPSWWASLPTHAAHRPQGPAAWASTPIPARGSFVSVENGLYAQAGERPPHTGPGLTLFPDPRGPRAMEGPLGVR

T2: TIGIT on human CMV pp65-specific CD8+ T cells (human, UniProt Q495A1 22-244)
T2 sequence (looked up): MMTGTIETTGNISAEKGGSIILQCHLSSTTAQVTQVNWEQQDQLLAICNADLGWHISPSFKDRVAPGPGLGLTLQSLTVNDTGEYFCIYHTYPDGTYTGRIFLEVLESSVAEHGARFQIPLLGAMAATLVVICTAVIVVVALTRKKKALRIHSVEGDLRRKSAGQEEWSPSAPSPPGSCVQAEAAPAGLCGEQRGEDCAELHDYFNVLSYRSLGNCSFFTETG

T3: Human PVRIG-HIS (prepared in-house) (human, UniProt Q6DKI7 41-171, limits assumed)
T3 construct: In-house protein; also called PVRIG-His (Compugen, lot 20170623); biotinylated PVRIG-His; not shown: His tag
T3 sequence (looked up): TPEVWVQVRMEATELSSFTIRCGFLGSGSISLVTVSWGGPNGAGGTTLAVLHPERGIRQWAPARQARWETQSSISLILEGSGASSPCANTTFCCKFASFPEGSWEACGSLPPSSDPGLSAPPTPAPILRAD

T4: Human TIGIT-HIS monomer (Sino Biological) (human, UniProt Q495A1 22-141)
T4 construct: Bought protein; also called TIGIT-His (Sino Biological cat #10917-H08H); biotinylated TIGIT-His; not shown: His tag
T4 sequence (looked up): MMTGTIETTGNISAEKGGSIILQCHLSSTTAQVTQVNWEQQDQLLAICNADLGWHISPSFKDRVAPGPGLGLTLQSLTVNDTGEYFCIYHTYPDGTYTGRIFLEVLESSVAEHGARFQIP

B1: CHA.7.518.1.H4(S241P)/CPA.9.086 bispecific antibody (bispecific antibody, human IgG4 S228P, kappa, lambda)
heavy 1: QVQLVQSGAEVKKPGASVKVSCKASGYTFTDYNINWVRQAPGQGLEWMGYIYPYIGGSGYAQKFQGRVTMTRDTSTSTVYMELSSLRSEDTAVYYCAREDKTARNAMDYWGQGTLVTVSSASTKGPSVFPLAPCSRSTSESTAALGCLVKDYFPEPVTVSWNSGALTSGVHTFPAVLQSSGLYSLSSVVTVPSSSLGTKTYTCNVDHKPSNTKVDKRVESKYGPPCPPCPAPEFLGGPSVFLFPPKPKDTLMISRTPEVTCVVVDVSQEDPEVQFNWYVDGVEVHNAKTKPREEQFNSTYRVVSVLTVLHQDWLNGKEYKCKVSNKGLPSSIEKTISKAKGQPREPQVYTLPPCQDELTKNQVSLWCLVKGFYPSDIAVEWESNGQPENNYKTTPPVLDSDGSFFLYSRLTVDKSRWQEGNVFSCSVMHEALHNHYTQKSLSLSPGK
light 1: DIQMTQSPSSLSASVGDRVTITCRVSENIYSNLAWYQQKPGKAPKLLIYEATNLAEGVPSRFSGSGSGTDFTLTISSLQPEDFATYYCQHFWGTPYTFGQGTKLEIKRTVAAPSVFIFPPSDEQLKSGTASVVCLLNNFYPREAKVQWKVDNALQSGNSQESVTEQDSKDSTYSLSSTLTLSKADYEKHKVYACEVTHQGLSSPVTKSFNRGEC
heavy 2: EVQLVETGGGLIQPGRSLRLSCAASGFTFSSYAMHWVRQAPGKGLEWVAVISYAGEVKYYADSVKGRFTISRDNSKNTLYLQMNSLRAEDTAVYYCARDPLPLHYYGMDVWGQGTTVTVSSASGQPKAAPSVTLFPPSSEELQANKATLVCLISDFYPGAVTVAWKADSSPVKAGVETTTPSKQSNNKYAASSYLSLTPEQWKSHRSYSCQVTHEGSTVEKTVAPTECSESKYGPPCPPCPAPEFLGGPSVFLFPPKPKDTLMISRTPEVTCVVVDVSQEDPEVQFNWYVDGVEVHNAKTKPREEQFNSTYRVVSVLTVLHQDWLNGKEYKCKVSNKGLPSSIEKTISKAKGQPREPQVCTLPPSQDELTKNQVSLSCAVKGFYPSDIAVEWESNGQPENNYKTTPPVLDSDGSFFLVSRLTVDKSRWQEGNVFSCSVMHEALHNHYTQKSLSLSPGK
light 2: QSALTQPRSASGNPGQRVTISCSGSSSNMGRRPVNWYQQIPGTAPKLLIYSQNQRPSGVPDRFSGSQSGTSASLTISGLQSEDEAEYFCAVWDDIGRVLQLGGGTQLAVLSSASTKGPSVFPLAPSSKSTSGGTAALGCLVKDYFPEPVTVSWNSGALTSGVHTFPAVLQSSGLYSLSSVVTVPSSSLGTQTYICNVNHKPSNTKVDKKVEPKSC
notes: also called CHA.7.518.1.H4(S241P)/CPA.9.086 BsAb; TIGIT-PVRIG Bispecific antibody

Key:
[1] = target: TIGIT on human CMV pp65-specific CD8+ T cells (human) (UniProt Q495A1); assay: flow cytometry on CMV pp65-specific CD8+ T cells, day 11, against an isotype control
[2] = target: T1, PVRIG on human CMV pp65-specific CD8+ T …; assay: cell-based or functional assay
[3] = target: T2, TIGIT on human CMV pp65-specific CD8+ T …; assay: cell-based or functional assay
[4] = target: T3, Human PVRIG-HIS (prepared in-house); assay: SPR (ProteOn XPR 36, 22 C); BsAb captured on anti-human Fc, PVRIG-HIS as analyte, 1:1 fit
Protocol: (§1) All experiments were performed using a ProteOn XPR 36 instrument at 22° C. while samples were kept at 4° C. during the assay. First, high density capture surfaces were prepared with a goat anti-human Fc polyclonal antibody (Thermo Fisher) immobilized over all vertical capture lanes and horizontal interspots on a GLC chip (Bio Rad) using standard amine coupling. […] Human TIGIT-HIS monomer was obtained from Sino Biological, while human PVRIG-HIS was prepared in-house. […] For each “single-shot kinetics” cycle on the ProteOn instrument, a different antibody was captured over two unique vertical capture lanes for two minutes. After switching the buffer flow of the ProteOn to the horizontal direction, capture surfaces were stabilized for approximately 15-20 minutes. […] Three replicates of each concentration series of antigen were injected over two independent surfaces of the captured bispecific antibody along with several cycles of buffer injections for double-referencing. […] The sensorgrams of TIGIT and PVRIG injected over the captured bispecific antibody were processed using a ProteOn version of Scrubber and were fit to a 1:1 kinetic binding model, including a term for mass transport.

[5] = target: T4, Human TIGIT-HIS monomer (Sino …); assay: SPR (ProteOn XPR 36, 22 C); BsAb captured on anti-human Fc, TIGIT-HIS monomer as analyte; kd/ka with kd held constant; rough estimate
Protocol: as §1

[6] = target: T4, Human TIGIT-HIS monomer (Sino …); assay: SPR (ProteOn XPR 36, 22 C); BsAb captured on anti-human Fc, TIGIT-HIS monomer as analyte, 1:1 fit with kd held constant; rough estimate
Protocol: as §1

[7] = target: T4, Human TIGIT-HIS monomer (Sino …); assay: SPR (ProteOn XPR 36, 22 C); BsAb captured on anti-human Fc, TIGIT-HIS monomer as analyte; value fixed, not fitted, because too little dissociation was seen in 15 min
Protocol: as §1

Row | Molecule | MFIr (MFI of target antibody divided by MFI of control antibody) [1] [fold] | IFN-γ production EC50, donor 4 (both receptors blocked) [2] [pM] | IFN-γ production EC50, donor 72 (both receptors blocked) [2] [pM] | IFN-γ production EC50, donor 4 (both receptors blocked) [3] [pM] | IFN-γ production EC50, donor 72 (both receptors blocked) [3] [pM] | Kd [4] [pM] | koff [4] [s⁻¹] | kon [4] [M⁻¹ s⁻¹] | Kd [5] [pM] | kon [6] [M⁻¹ s⁻¹] | koff [7] [s⁻¹]
1 | anti-TIGIT (clone: MBSA43)-allophycocyanin (APC; e-Bioscience) (antibody) | 4 | – | – | – | – | – | – | – | – | – | –
2 | B1 | – | 360 | 530 | 360 | 530 | 187 | 0.00024 | 1.3e+06 | ≤ 2.6 | 3.9e+06 | ≤ 1e-05
